Target: T1, GST-LuxR (Vibrio harveyi, UniProt P21308 1-205)
T1 sequence: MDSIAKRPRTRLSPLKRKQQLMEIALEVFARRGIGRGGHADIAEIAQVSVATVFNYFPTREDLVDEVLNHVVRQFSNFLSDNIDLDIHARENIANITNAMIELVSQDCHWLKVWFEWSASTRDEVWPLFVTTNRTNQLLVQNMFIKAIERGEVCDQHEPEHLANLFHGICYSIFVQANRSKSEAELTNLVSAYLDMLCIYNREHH
Assay: fluorescence anisotropy; no thiophenone; Kd value only in Figure 4B; 30°C; annealing in NaCl-Tris-EDTA buffer; binding buffer, salt and pH not stated (as in ref 37); ex 480 nm, em 535 nm
Details: protein: recombinant; chain copies: 2; label: 5'-fluorescein on strand 1; blunt

B1: V. harveyi consensus LuxR binding sequence (dsDNA)
DNA 1: TATTGATAAATTTATCAATAA
DNA 2: TTATTGATAAATTTATCAATA
- binding result: binds

Reference: PMC3404956, “A Quorum Sensing-Disrupting Brominated Thiophenone with a Promising Therapeutic Potential to Treat Luminescent Vibriosis”
